From patent US20100048604A1, “Ligands for Aldoketoreductases” (priority 2004, published 2010)
One block for each molecule: values may come before it.

Key:
[1] = Solubility in DMSO, methanol and acetonitrile; format: physicochemical; conditions: methanol, acetonitrile, organic solvent or mixture, read-out: solubility class (asterisk) in DMSO, methanol, and acetonitrile
[2] = biological target: T1, rat 3α-hydroxysteroid dehydrogenase (Rattus norvegicus, UniProt P23457); experiment: Enzymatic screening of probes 1-7 against a panel of oxidoreductases; format: biochemical; conditions: 12 hour incubation, 30-50 μM substrate, pH 7, 250 μM NAD(P)H
T1 construct: gift of Professor Trevor Penning (University of Pennsylvania School of Medicine)
T1 sequence (P23457 1-322): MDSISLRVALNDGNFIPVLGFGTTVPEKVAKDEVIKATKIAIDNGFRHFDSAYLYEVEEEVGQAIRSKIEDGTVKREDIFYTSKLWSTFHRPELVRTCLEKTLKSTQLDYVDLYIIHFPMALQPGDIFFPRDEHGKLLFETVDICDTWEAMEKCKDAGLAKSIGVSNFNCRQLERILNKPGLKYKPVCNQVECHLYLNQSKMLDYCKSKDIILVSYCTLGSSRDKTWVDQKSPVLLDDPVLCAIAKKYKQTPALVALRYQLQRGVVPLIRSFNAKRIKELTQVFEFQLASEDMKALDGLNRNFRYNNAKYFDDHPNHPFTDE
Procedure: (§1) FIG. 4. Screening of probes 1-7 against a panel of oxidoreductases Percentage fluorescence increase after 12 hour incubation of 30-50 μM substrate, 100 mM phosphate buffer (pH 7), 250 μM NAD(P)H, and 100 nM enzyme. Substrates 1, 2, 3, and 4 monitored at λexc=340 nm, λem=440 nm. Substrates 5, 6, and 7 monitored at λexc=440 nm, λem=510 nm. 3HSD, 3α-hydroxysteroid dehydrogenase (PT, Pseudomonas testosteroni), HLAD, horse liver alcohol dehydrogenase, TBAD, Thermoanaerobium brockii alcohol dehydrogenase, BS 12HSD, Bacillus sp. 12α-hydroxysteroid dehydrogenase, ABAD, amyloid-β binding alcohol dehydrogenase (human), GDH, glycerol dehydrogenase, YADH, yeast alcohol dehydrogenase, LDH, lactate dehydrogenase.
(§2) Probes 1-7 (see FIG. 3) were subsequently tested against a collection of dehydrogenases in the presence of NAD(P)H; the extent of reduction was assessed by the measurement of fluorescence intensity at the emission maximum of each probe (FIG. 4). This assay included enzymes from two major oxidoreductase superfamilies, the short chain alcohol dehydrogenases (SDR) and the aldo-keto reductases (AKR), ranging from bacterial to mammalian and human enzymes.
(§3) Horse Liver alcohol dehydrogenase (Lot Number 51K7520), Thermoanaerobium brockii NADP^+ dependent alcohol dehydrogenase (Lot Number 033K4093), Pseudomonas testosteroni 3α-hydroxysteroid dehydrogenase (Lot Number 053K8624), and Bacillus sphaericus 12α-hydroxysteroid dehydrogenase (Lot Number 70K16621) were purchased from Sigma (St. Louis, Mo.). Yeast alcohol dehydrogenase (Lot Number 93122920), glycerol dehydrogenase (Lot Number 92110122), (D)-lactate dehydrogenase (Lot Number 92419236), (L)-lactate dehydrogenase (Lot Number 92801821), NAD^+, NADP^+, NADH, and NADPH were purchased from Roche. Enzyme activity was confirmed by compliance to supplier's quality control assays prior to usage. Rat and human 3α-hydroxysteroid dehydrogenases were provided by Professor Trevor Penning (University of Pennsylvania School of Medicine) and human amyloid-β peptide binding alcohol dehydrogenase was supplied by Professor Shi Du Yan (Columbia University School for Physicians and Surgeons).
(§4) Enzymatic assays were performed in triplicate on selected fluorogenic substrates according to the following protocol. To each well of a FALCON 96-well black flat bottom plate was added (1) 40 μL of 500 mM potassium phosphate buffer pH 7.0, (2) 113 μL of double deionized water, (3) 25 μL of 2 mM NADH (except for Pseudomonas testosteroni 3α-hydroxysteroid dehydrogenase, rat 3α-hydroxysteroid dehydrogenase, and Thermoanaerobium brockii NADP^+ dependent alcohol dehydrogenase, in which cases 2 mM of NADPH was used), (4) 2 μL of a 3-5 mM solution of substrate in DMSO, and (5) 20 μL of a 40-50 μg/mL solution of enzyme. Reaction volumes were mixed thoroughly after addition of cofactor, substrate, and enzyme and allowed to react 12 hours at 25° C. Scanning of the 96-well plate was performed by the MicroMax 384 connected to a Jobin Yvon Fluorolog through F-3000 fiber optic cables.
(§5) Initial Screening with Fluorogenic Substrates: Screening of the first fluorogenic substrates for enzymatic activity has been described above. In short, 200 μL enzymatic assay volumes containing 100 mM potassium phosphate buffer (pH 7), 250 μM NAD(P)H cofactor, and 30-50 μM of ketones (1-7) were incubated for 12 hours on a black FALCON 96-well plate. Formation of the alcohol reduction product was determined by reading the fluorescence arising from excitation at the corresponding alcohol at either 340 nm (27-30) or 440 nm (31-33).

[3] = biological target: T2, Pseudomonas testosteroni 3α-hydroxysteroid dehydrogenase (Comamonas testosteroni, UniProt P80702); experiment: as above; format: biochemical; conditions: 12 hour incubation, 30-50 μM substrate, pH 7, 250 μM NAD(P)H
T2 construct: purchased Sigma (St. Louis, Mo.) Lot Number 053K8624 (catalogue number not given)
Procedure: as §1, §2, §3, §4, §5

[4] = substrate: O=C(c1ccccc1)c1cc(=O)oc2c3c4c(cc12)CCCN4CCC3; experiment: Steady state kinetic parameters of fluorogenic substrates with purified AKR1C isozymes; format: biochemical, human; conditions: other: isozyme 1C2, potassium phosphate buffer pH 6, NADPH, fluorimetric
Excerpt: (§6) AKR1C2 and AKR1C3 Selective Probes: Probes (5a-5i) were examined as substrates for the four purified human HSD isozymes (AKR1C1-AKR1C4) under standard assay conditions [catalytic quantities of enzyme, an excess of cofactor (NADPH)]. The initial reaction rates were used to derive standard kinetic parameters (kcat and Km, Materials and Methods).
(§7) Substrate tolerance of AKR1Cs: Isozyme Activity with 5a-5i: Activity of the second generation of fluorogenic substrates with the AKR1C isozymes was determined as follows. To a STARNA semi-micro fluorimeter cell (with 4 polished windows) was added 100 μL of 1 M potassium phosphate buffer (pH 6), 840 μL doubly deionized water, and 20 μL of 12.5 mM NADPH. After mixing the aqueous components thoroughly, 20 μL of acetonitrile was added as a cosolvent and mixed well. 20 μL of 2.5 mM second generation fluorogenic ketone in acetonitrile (5a-5i) was then added and mixed. 4 μL of undiluted AKR1C (provided generously by the Penning lab at concentrations of 2.5 mg/mL) were then added to the cuvette for a total of 10 μg purified enzyme in the 1 mL assay volume. Fluorescence arising from the respective alcohol reduction product was then monitored over the course of 5-10 minutes.
(§8) Binding constant and catalytic rates (Km and kcat) of the second generation of fluorogenic substrates was determined as follows. To a STARNA semi-micro fluorometer cell (with 4 polished windows) was added 100 μL of 1 M potassium phosphate buffer (pH 6), 840 μL doubly deionized water, and 20 AL of 12.5 mM NADPH. After mixing the aqueous components thoroughly, 20 μL of acetonitrile was added as a cosolvent and mixed well. 20 μL of the second generation fluorogenic ketone (5a-5i) was then added and mixed to achieve assay concentrations of 5Km to Km/5. To initiate the reduction, 2 or 4 μL of diluted AKR1C (1:2 to 1:100, depending on the kinetics of a particular isozyme's reduction of a substrate) was then added to the cuvette. Fluorescence arising from the respective alcohol reduction product was then monitored over the course of 3 minutes (Excitation and emission band pass slits both at 4 nm, lamp 700 V, λexc 410 nm, λem 510). The rate of product formation, expressed in units of nanomoles per minute, were calculated according to previously published procedures (Wierzchowski, J.; Dafeldecker, W. P.; Holmquist, B.; Vallee, B. L. Anal. Biochem. 1989, 178, 57-62):
(§9) initial rate=[nst×(Ft−F0)/(Fst)]/t (1)
(§10) where Ft and F0 represent the fluorescence at times t and 0 minutes, nst is the nanomoles of product in a known concentration of product, and Fst is the fluorescence resulting from nst of product. Kinetic parameters were approximated by GraFit (Erithacus Software, Surrey, UK) nonlinear regression analysis program to fit the untransformed data to a hyperbolic function as originally described (Wierzchowski, J.; Dafeldecker, W. P.; Holmquist, B.; Vallee, B. L. Anal. Biochem. 1989, 178, 57-62). Reported enzymatic kinetic parameters are the average of three independent determinations from three different preparations of substrate and enzyme.

[5] = substrate: CC(=O)c1cc(=O)oc2c3c(ccc12)NCCC3; experiment: as above; format: biochemical, human; conditions: other: isozyme 1C2, potassium phosphate buffer pH 6, NADPH, fluorimetric
Excerpt: as §6, §7, §8, §9, §10

[6] = substrate: CC(=O)c1cc(=O)oc2cc3c(cc12)CCCN3; experiment: as above; format: biochemical, human; conditions: other: isozyme 1C2, potassium phosphate buffer pH 6, NADPH, fluorimetric
Excerpt: as §6, §7, §8, §9, §10

[7] = substrate: CC(=O)c1cc(=O)oc2c3c4c(cc12)CCCN4CCC3; experiment: as above; format: biochemical, human; conditions: other: isozyme 1C2, potassium phosphate buffer pH 6, NADPH, fluorimetric
Excerpt: as §6, §7, §8, §9, §10

[8] = substrate: O=C1CCc2c1c1cc3c4c(c1oc2=O)CCCN4CCC3; experiment: as above; format: biochemical, human; conditions: other: isozyme 1C2, potassium phosphate buffer pH 6, NADPH, fluorimetric
Excerpt: as §6, §7, §8, §9, §10

[9] = substrate: CC(=O)c1cc(=O)oc2cc(N(C)C)ccc12; experiment: as above; format: biochemical, human; conditions: other: isozyme 1C2, potassium phosphate buffer pH 6, NADPH, fluorimetric
Excerpt: as §6, §7, §8, §9, §10

T2 sequence (P80702 whole entry): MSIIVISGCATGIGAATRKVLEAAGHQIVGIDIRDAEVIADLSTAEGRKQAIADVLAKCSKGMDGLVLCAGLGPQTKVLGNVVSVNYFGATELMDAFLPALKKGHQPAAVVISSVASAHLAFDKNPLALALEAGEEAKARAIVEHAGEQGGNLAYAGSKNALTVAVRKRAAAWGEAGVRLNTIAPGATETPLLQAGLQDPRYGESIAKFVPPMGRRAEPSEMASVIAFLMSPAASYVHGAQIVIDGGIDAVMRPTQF

- solubility [1]: > 1000 µM
Molecule: COc1ccc2cc(-c3ccc(C(C)=O)cc3)c(=O)oc2c1 [VB11]

Molecule: CC(=O)c1ccc(-c2cc3cc4c5c(c3oc2=O)CCCN5CCC4)cc1 [VB35]
- solubility [1]: > 1000 µM

Molecule: CC(=O)c1ccc(-c2cc3cc4c5c(c3oc2=O)CCCN5CCC4)cc1 [compound 6, 9-(4-Acetyl-phenyl)-2,3,5,6-tetrahydro-1H,4H-11-oxa-3a-aza-benzo[de]anthracen-10-one]
- reduction of probe (fluorescence increase) [2]: good conversion
- reduction of probe (fluorescence increase) [3]: good conversion

B1: AKR1C2 (Homo sapiens) (protein)
chain: MDSKYQCVKLNDGHFMPVLGFGTYAPAEVPKSKALEAVKLAIEAGFHHIDSAHVYNNEEQVGLAIRSKIADGSVKREDIFYTSKLWSNSHRPELVRPALERSLKNLQLDYVDLYLIHFPVSVKPGEEVIPKDENGKILFDTVDLCATWEAMEKCKDAGLAKSIGVSNFNHRLLEMILNKPGLKYKPVCNQVECHPYFNQRKLLDFCKSKDIVLVAYSALGSHREEPWVDPNSPVLLEDPVLCALAKKHKRTPALIALRYQLQRGVVVLAKSYNEQRIRQNVQVFEFQLTSEEMKAIDGLNRNVRYLTLDIFAGPPNYPFSDEY
notes: gift of the Penning lab (University of Pennsylvania School of Medicine)
- Km [4]: 3 µM
- Km [5]: 4.8 µM
- Km [6]: 43.3 ± 4.4 4.3 ± 0.2 μM
- Km [7]: 7.3 µM
- Km [8]: 4.5 µM
- kcat [8]: 1.6 0.40 7.2 no activity
- kcat/Km [8]: 0.39 0.08 56 min^−1 μM^−1
- Km [9]: 7.2 µM
